Measured values as given in patent publication US20240245798A1 (TUBULIS, published 2024).

How the values were obtained:
[1] = target: T1, recombinant hexameric human C1q complement protein (human, UniProt P02745 23-245; P02746 28-253; P02747 29-245, limits assumed); experiment: HTRF human C1q binding assay (Cisbio)
T1 construct: Described only as recombinant hexameric C1q; also called complement factor C1q

[2] = target: T2, purified recombinant human 5T4 antigen, extracellular domain as 6x-Histidine fusion protein (glycosylated) (human, UniProt Q13641 32-355); experiment: ELISA on immobilized recombinant human 5T4 ECD-6xHis; apparent KD, one-site specific binding fit
T2 construct: Expressed in Expi-HEK293; also called glycosylated 5T4; recombinant immobilized human 5T4 antigen; not shown: 6x-Histidine tag
T2 sequence: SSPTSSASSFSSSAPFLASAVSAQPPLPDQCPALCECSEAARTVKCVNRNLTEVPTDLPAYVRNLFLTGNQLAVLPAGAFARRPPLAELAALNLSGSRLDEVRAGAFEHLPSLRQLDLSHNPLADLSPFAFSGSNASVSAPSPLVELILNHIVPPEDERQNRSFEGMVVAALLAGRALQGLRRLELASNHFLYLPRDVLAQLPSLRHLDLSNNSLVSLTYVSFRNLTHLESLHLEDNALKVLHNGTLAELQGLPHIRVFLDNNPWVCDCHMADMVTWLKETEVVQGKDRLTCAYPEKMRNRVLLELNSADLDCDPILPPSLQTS

[3] = target: T3, purified recombinant human 5T4 antigen, extracellular domain as 6x-Histidine fusion protein, de-glycosylated … (human, UniProt Q13641 32-355, de-glycosylated with PNGase F over night at 37 C); experiment: ELISA on immobilized PNGase F-treated recombinant human 5T4 ECD-6xHis; apparent KD, one-site specific binding fit
T3 construct: Same construct as m5 after PNGase F treatment; also called de-glycosylated 5T4; not shown: 6x-Histidine tag
T3 sequence: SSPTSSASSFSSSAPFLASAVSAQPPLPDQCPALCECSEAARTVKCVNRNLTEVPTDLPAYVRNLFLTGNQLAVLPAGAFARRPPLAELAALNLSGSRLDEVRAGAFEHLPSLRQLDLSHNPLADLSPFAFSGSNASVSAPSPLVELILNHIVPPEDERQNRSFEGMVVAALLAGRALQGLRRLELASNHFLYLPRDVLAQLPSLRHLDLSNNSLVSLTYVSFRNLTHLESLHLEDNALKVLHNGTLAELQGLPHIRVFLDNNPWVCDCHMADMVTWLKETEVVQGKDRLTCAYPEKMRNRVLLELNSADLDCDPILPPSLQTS

[4] = target: T4, human 5T4 (trophoblast glycoprotein, TPBG), endogenously expressed on tumor cells (human, UniProt Q13641 32-420); experiment: flow cytometry on MDA-MB-468 cells endogenously expressing human 5T4, 0.002 to 200 nM, one-site specific binding fit
T4 construct: the protein stood on cell lines that express it endogenously; also called endogenously expressed human 5T4; MDA-MB-468 cells
T4 sequence: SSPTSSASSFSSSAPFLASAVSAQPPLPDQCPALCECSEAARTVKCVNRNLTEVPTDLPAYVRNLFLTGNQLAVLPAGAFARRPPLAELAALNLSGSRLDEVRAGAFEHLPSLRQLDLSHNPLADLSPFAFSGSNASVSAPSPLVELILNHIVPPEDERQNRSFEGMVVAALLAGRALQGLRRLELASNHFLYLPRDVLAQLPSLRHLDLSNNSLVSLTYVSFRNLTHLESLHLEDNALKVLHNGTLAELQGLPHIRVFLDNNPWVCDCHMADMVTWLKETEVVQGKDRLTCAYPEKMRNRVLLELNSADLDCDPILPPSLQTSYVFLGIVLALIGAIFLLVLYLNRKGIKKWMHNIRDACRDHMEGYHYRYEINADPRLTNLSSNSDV

[5] = target: T5, human full-length 5T4-(GGGGS)-mCherry, transiently expressed on HEK293 cells (human, UniProt Q13641 32-420); experiment: flow cytometry on mCherry-positive HEK293 cells transiently expressing human full-length 5T4-mCherry, one-site specific binding fit
T5 construct: also called human full-length 5T4-mCherry; not shown: mCherry fluorescent protein
T5 sequence: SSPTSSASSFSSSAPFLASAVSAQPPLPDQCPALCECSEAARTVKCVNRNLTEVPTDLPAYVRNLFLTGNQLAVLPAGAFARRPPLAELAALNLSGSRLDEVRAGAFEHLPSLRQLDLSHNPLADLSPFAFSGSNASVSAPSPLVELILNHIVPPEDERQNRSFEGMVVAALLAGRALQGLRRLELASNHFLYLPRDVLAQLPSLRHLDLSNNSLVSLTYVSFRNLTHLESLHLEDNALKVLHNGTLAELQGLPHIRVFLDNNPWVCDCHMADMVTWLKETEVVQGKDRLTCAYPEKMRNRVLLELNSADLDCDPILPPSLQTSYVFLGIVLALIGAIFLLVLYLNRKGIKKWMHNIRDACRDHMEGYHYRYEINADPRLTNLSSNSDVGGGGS

[6] = target: T6, white-tufted-ear marmoset full-length 5T4-(GGGGS)-mCherry, transiently expressed on HEK293 cells (white-tufted-ear marmoset (Callithrix …, UniProt Q13641 32-420 (human entry))); experiment: flow cytometry on mCherry-positive HEK293 cells transiently expressing marmoset full-length 5T4-mCherry, one-site specific binding fit
T6 construct: also called marmoset full-length 5T4-mCherry; marmoset 5T4; not shown: mCherry fluorescent protein
T6 chain: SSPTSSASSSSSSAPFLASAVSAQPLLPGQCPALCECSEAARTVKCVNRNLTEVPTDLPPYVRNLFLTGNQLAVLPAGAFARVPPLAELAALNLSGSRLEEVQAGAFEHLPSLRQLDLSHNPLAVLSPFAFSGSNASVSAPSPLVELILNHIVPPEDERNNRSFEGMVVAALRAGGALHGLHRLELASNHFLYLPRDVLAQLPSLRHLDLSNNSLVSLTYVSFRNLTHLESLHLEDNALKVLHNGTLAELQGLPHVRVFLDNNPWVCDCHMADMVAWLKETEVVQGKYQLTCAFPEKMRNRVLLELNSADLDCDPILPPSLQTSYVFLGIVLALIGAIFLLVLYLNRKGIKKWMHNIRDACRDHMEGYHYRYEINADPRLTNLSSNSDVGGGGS

T1 sequence (P02745 23-245 limits assumed, chain 1 of 3): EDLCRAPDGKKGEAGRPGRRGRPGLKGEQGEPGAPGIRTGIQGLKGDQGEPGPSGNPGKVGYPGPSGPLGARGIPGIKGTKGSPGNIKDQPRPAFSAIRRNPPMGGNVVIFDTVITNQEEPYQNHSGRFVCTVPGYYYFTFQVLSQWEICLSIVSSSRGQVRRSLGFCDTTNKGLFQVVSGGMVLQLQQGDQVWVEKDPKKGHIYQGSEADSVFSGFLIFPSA
T1 sequence (P02746 28-253 limits assumed, chain 2 of 3): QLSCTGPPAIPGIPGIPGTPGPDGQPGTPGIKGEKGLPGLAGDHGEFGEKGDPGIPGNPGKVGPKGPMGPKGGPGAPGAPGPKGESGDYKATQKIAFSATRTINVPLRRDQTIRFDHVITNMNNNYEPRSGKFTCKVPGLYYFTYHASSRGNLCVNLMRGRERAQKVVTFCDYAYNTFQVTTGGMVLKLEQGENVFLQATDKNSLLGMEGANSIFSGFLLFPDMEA
T1 sequence (P02747 29-245 limits assumed, chain 3 of 3): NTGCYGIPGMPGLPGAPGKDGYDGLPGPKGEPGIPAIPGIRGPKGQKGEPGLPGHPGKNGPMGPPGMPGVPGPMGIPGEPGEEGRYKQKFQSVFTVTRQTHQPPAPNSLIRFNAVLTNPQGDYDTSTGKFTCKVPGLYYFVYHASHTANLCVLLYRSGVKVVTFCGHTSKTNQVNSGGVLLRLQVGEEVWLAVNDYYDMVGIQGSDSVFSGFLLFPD

B1: anti-TPBG antibody HC-LALA (LALA-silenced anti-TPBG antibody) (antibody)
heavy: not shown
light: EIVMTQSPDSLAVSLGERATINCKASQSVSNDVAWYQQKPGQPPKLLIYYTSSRYAGVPDRFSGSGSGTDFTLTISSLQAEDVAVYYCQQDYNSPPTFGGGTKLEIKRTVAAPSVFIFPPSDEQLKSGTASVVCLLNNFYPREAKVQWKVDNALQSGNSQESVTEQDSKDSTYSLSSTLTLSKADYEKHKVYACEVTHQGLSSPVTKSFNRGEC
notes: also called anti-TBPG antibody; anti-TPBG mAb HC-LALA
binding result [1]: no binding (tested: serial dilutions 280 nM-11.6 nM)
Kd [2]: 0.1 nM
Kd [3]: 0.16 nM
Kd [4]: 0.247 nM
Kd [5]: 2.15 nM
Kd [6]: 5.46 nM
